This note sets out measurements from patent publication US20200289608A1 (FUJITA ACADEMY, published 2020).

The assay deals with T1, cyclic nucleotide-gated channel beta 3 (CNGB3) (human, UniProt Q9NQW8 1-809, limits assumed).
T1 construct: Endogenous protein in patient material; also called human CNGB3
T1 sequence (looked up): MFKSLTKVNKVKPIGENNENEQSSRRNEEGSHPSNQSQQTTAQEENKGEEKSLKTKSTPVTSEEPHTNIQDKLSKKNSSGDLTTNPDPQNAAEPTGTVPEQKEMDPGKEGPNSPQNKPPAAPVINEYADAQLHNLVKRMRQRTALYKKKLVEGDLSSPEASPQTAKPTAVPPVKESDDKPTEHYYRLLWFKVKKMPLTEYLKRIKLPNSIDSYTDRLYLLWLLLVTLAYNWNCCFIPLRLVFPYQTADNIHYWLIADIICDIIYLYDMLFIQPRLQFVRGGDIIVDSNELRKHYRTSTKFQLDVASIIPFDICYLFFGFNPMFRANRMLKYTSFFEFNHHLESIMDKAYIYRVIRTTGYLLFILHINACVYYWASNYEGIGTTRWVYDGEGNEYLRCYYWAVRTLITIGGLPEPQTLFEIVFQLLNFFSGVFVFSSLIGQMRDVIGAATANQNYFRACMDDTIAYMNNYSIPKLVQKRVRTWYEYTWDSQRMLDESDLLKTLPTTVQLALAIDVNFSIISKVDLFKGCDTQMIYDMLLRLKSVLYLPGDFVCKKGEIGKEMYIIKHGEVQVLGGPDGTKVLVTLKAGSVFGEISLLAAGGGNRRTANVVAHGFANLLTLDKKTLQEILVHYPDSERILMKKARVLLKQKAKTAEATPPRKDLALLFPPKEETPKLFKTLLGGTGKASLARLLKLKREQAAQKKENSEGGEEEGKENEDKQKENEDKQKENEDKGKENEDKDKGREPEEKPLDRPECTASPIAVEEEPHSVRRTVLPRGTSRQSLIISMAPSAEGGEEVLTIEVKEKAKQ
As to the kind of experiment: avidin blotting: serum exosome proteins after SDS-PAGE on PVDF, probed with 1.0 ug/mL biotinylated Z13 peptide and HRP-avidin. Here is the method: The exosome was isolated from the serum using Exosome Isolation Kit (manufactured by Fujifilm Wako Pure Chemical Industries, Ltd.) according to the manufacturer's instruction. Specifically, first, the serum was centrifuged at 1,000×g at 4° C.° for 20 minutes, and the supernatant was recovered. The collected supernatant was centrifuged at 10,000×g at 4° C. for 30 minutes, and the supernatant was transferred to a new tube. Subsequently, 1.0 mL of the supernatant was mixed with exosome capture beads with a rotator at 4° C. for 180 minutes. Subsequently, after washing the capture beads, the exosome was eluted with 100 μL of an elution buffer and stored at −20° C.
An exosome isolated from 800 μL of serum was mixed with a concentrated Laemmli buffer to prepare a measurement sample. The measurement sample was isolated by SDS-PAGE and then transferred to a PVDF membrane. The PVDF membrane was blocked in 5% BSA-containing TBST (0.1 v/v % Tween-20) at room temperature for 60 minutes. The PVDF membrane after blotting was washed and incubated overnight at 4° C.° in 1.0 μg/mL of biotinylated Z13 peptide-containing TBST. […] The CNGB3 on the membrane was detected using a CCD camera system (manufactured by ATTO) and ECL prime (manufactured by GE Healthcare). […]

Where no end group is shown, it is not given here.

B1: biotinylated Z13 peptide (peptide)
peptide: VRRADNRPG
modifications: also: biotin bound, position not given here
notes: Synthesized by GenScript; used at 1.0 ug/mL as the probe in avidin blotting, detected with HRP-avidin
Take B1: the binding result was “binds”.
